According to paper PMC6344876:

Legend:
[1] = system: eIF2 heterotrimer (WT eIF2γ, His-tagged) (Saccharomyces cerevisiae); assay: filter binding; details: aminoacylated with Met; Filter binding: 25 mM HEPES-KOH pH 7.6, 2.5 mM Mg(OAc)2, 80 mM KOAc, 2 mM DTT, 0.5 mM GDPNP-Mg2+, 1 nM tRNA, 3.125-200 nM eIF2, 26 C; pull-down: 20 mM Tris-HCl …
[2] = system: eIF2 heterotrimer with eIF2γ-I318M (His-tagged) (Saccharomyces cerevisiae); assay: filter binding; details: aminoacylated with Met; Filter binding: 25 mM HEPES-KOH pH 7.6, 2.5 mM Mg(OAc)2, 80 mM KOAc, 2 mM DTT, 0.5 mM GDPNP-Mg2+, 1 nM tRNA, 3.125-200 nM eIF2, 26 C; pull-down: 20 mM Tris-HCl …

[35S]Met-tRNAiMet (in vitro transcribed)
Kd [1]: 0.018 µM
Kd [2]: 0.098 µM
